Test results published in patent US20070249530A1.

What was measured:
[1] = target: Murine APRIL (K104-L241) thioredoxin fusion protein (murine) (UniProt Q9D777); test: competitive displacement ELISA on immobilized APRIL; unlabeled baculovirus BCMA varied, tracer biotinylated BCMA-Z
[2] = target: Murine APRIL (K104-L241) thioredoxin fusion protein (murine) (UniProt Q9D777); test: competitive displacement ELISA on immobilized APRIL; unlabeled baculovirus BCMA varied, tracer biotinylated baculovirus BCMA
[3] = target: Murine APRIL (K104-L241) thioredoxin fusion protein (murine) (UniProt Q9D777); test: competition ELISA; immobilized APRIL, tracer biotinylated BCMA-Z
[4] = target: Murine APRIL (K104-L241) thioredoxin fusion protein (murine) (UniProt Q9D777); test: competitive displacement ELISA; immobilized APRIL, tracer biotinylated BCMA-Z
[5] = target: Murine APRIL (K104-L241) thioredoxin fusion protein (murine) (UniProt Q9D777); test: competitive displacement ELISA on immobilized APRIL; unbiotinylated BCMA-Fc varied, tracer biotinylated BCMA-Z
[6] = target: Murine APRIL (K104-L241) thioredoxin fusion protein (murine) (UniProt Q9D777); test: SPR (BIAcore 3000), APRIL immobilized, 1:1 model

Chain of BCMA-Fc (Q02223 5-51): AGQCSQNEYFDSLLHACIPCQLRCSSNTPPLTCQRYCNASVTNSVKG
Chain of BCMA ECD purified from baculovirus expression (Q02223 4-53): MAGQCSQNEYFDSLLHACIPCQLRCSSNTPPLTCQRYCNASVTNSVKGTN

Substance | IC50 (read off the curve) [1] | IC50 (read off the curve) [2] | IC50 [3] | IC50 [4] | IC50 (read off the curve) [5] | Kd [6] | kon [6]
BCMA ECD purified from baculovirus expression (from UniProt Q02223 4-53) (receptor) | 10 nM | 20 nM |  |  |  |  | 
BCMA-Fc (from UniProt Q02223 5-51) (Fc fusion) |  |  | 7 to 10 nM | 5 nM | 7 nM | 0.2 nM | 3.12e+06 M⁻¹ s⁻¹
